Data reported in patent publication US20210403547A1 (Eli Lilly, published 2021).
Each block holds one binder with its values, some of them ahead of it.

Tests used:
[1] = molecular target: T1, Mouse Epiregulin (mouse (Mus musculus), UniProt Q61521 56-101); test: SPR (Biacore), antibody captured on chip, ligand injected, KD = koff/kon, 25 C
Description: (§1) Biacore T2000 instrument (BIAcore® AB, Upsala, Sweden), reagents and Biacore T2000 Evaluation Software Ver 4.1 are used for the Surface Plasmon Resonance analysis. A CMS chip is prepared using manufacturer's EDC/NHS amine coupling method. The surfaces of all four flow cells are activated by injecting a 1:1 mixture of EDC/NHS for 7 minutes at 10 μL/min. […] Un-reacted sites are blocked with a 7 minute injection of ethanolamine at 10 μL/min. Injections of 3×20 seconds of glycine pH 1.5 at 30 μL/min are used to remove non-covalently associated protein. The running buffer is HBS-EP [10 mM HEPES, 150 mM Sodium Chloride, 3 mM EDTA, 0.005% Polysorbate 20].
(§2) Duplicate injections of each ligand concentration are injected at 30 μL/min for 300 seconds followed by a dissociation phase. […] Regeneration is performed by injecting 10 mM glycine pH 1.5 for 30 seconds at 30 μL/min over all flowcell.
(§3) Reference-subtracted data are collected as Fc2-Fc1. The measurements are obtained at 25° C. The on-rate (kₒₙ) and off-rate (koff) for each ligand are evaluated using a “1:1 (Langmuir) Binding” binding model. The affinity (KD) is calculated from the binding kinetics according to the relationship: KD=koff/kₒₙ.

[2] = molecular target: T2, Mouse TGF-alpha (mouse (Mus musculus), UniProt P48030 39-88); test: as above
T2 construct: also called mouse TGFα
Description: as §1, §2, §3

[3] = molecular target: T1, Mouse Epiregulin; test: cell-based or functional assay
[4] = molecular target: T3, Met-human Epiregulin (human, UniProt O14944 63-108); test: cell-based or functional assay
[5] = molecular target: Human TGF-alpha (human, UniProt P01135 40-89); test: cell-based or functional assay
[6] = molecular target: T4, Rat TGF-alpha (rat, UniProt P01134 39-88); test: cell-based or functional assay
[7] = molecular target: T1, Mouse Epiregulin; test: SPR (Biacore), antibody captured on chip, ligand injected, 1:1 Langmuir fit, 25 C
Description: as §1, §2, §3

[8] = molecular target: T2, Mouse TGF-alpha; test: as above
Description: as §1, §2, §3

[9] = molecular target: Mouse Epigen (mouse (Mus musculus), UniProt Q924X1 53-103); test: SPR, 25 C
[10] = molecular target: T1, Mouse Epiregulin; test: cell-based or functional assay; remark: listed apart in the source
[11] = molecular target: T2, Mouse TGF-alpha; test: cell-based or functional assay
[12] = molecular target: rat epigen (rat); test: cell-based or functional assay
[13] = molecular target: rat epiregulin (rat, UniProt Q9Z0L5 56-101, limits assumed); test: cell-based or functional assay
[14] = molecular target: T3, Met-human Epiregulin; test: cell-based or functional assay; remark: listed apart in the source
[15] = molecular target: cynomolgus monkey epigen (cynomolgus monkey, UniProt G7P5K4 23-110); test: cell-based or functional assay
[16] = molecular target: T5, Cynomolgus Epiregulin (cynomolgus (Macaca fascicularis), UniProt O14944 63-108 (human entry)); test: cell-based or functional assay
[17] = molecular target: T4, Rat TGF-alpha; test: cell-based or functional assay; remark: listed apart in the source
[18] = molecular target: T6, Human Amphiregulin (human, UniProt P15514 101-187); test: cell-based or functional assay
T6 sequence: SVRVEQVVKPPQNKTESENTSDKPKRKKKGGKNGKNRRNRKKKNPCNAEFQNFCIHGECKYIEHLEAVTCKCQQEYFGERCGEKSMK

[19] = molecular target: Human HBEGF (human, UniProt Q99075 63-148); test: cell-based or functional assay
[20] = molecular target: T7, Human Betacellulin (human, UniProt P35070 32-111); test: cell-based or functional assay
T7 sequence: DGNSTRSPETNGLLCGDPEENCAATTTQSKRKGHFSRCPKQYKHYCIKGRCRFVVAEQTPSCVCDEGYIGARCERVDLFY

[21] = molecular target: Human EGF (human, UniProt P01133 971-1023); test: cell-based or functional assay
[22] = molecular target: T1, Mouse Epiregulin; test: SPR (Biacore), antibody captured via anti-Fc on chip, ligand injected, KD = koff/kon, 25 C
Description: as §1
(§4) Duplicate injections of each ligand concentration are injected at 30 μL/min for 300 seconds followed by a dissociation phase. […] Regeneration is performed by injecting 10 mM glycine pH 1.5 for 3×20 seconds at 30 μL/min over all flowcell.
as §3

[23] = molecular target: T3, Met-human Epiregulin; test: as above
Description: as §1, §4, §3

[24] = molecular target: T5, Cynomolgus Epiregulin; test: as above
Description: as §1, §4, §3

[25] = molecular target: T4, Rat TGF-alpha; test: as above
Description: as §1, §4, §3

- Kd [1]: 215 nM
- Kd [2]: 0.038 nM
- IC50, neutralization of ligand-stimulated MFc7 cell proliferation (BrDU incorporation), ligand at 0.5 nM [3]: 214 nM
- IC50, neutralization of ligand-stimulated MFc7 cell proliferation (BrDU incorporation) [4]: 1.12 nM
- IC50, neutralization of ligand-stimulated MFc7 cell proliferation (BrDU incorporation) [5]: 0.52 nM
- IC50, neutralization of ligand-stimulated MFc7 cell proliferation (BrDU incorporation), ligand at 0.5 nM [6]: 0.13 nM
- koff [7]: 0.0141 s⁻¹
- kon [7]: 65500 M⁻¹ s⁻¹
- koff [8]: 2.02e-05 s⁻¹
- kon [8]: 541000 M⁻¹ s⁻¹
- Kd [9]: 365 nM
B1: Antibody III (antibody, mouse IgG1, kappa, V domains shown)
VH: QVQLQQSGPELVKPGASVKISCKASGYTFTDAYINWVKQRPGQGLEWIGWIWPGPVITYYNPKFKGKATLTVDKSSSTAYMLLSSLTSEDSAFYFCARREVLSPFAYWGQGTLVTVSA
VL: DVLMTQTPLSLPVSLGDQASISCRSSQSIVHSTGNTYLEWYLQKPGQSPKLLIYKVSNRFSGVPDRFSGSGSGTDFTLKISRVEAEDLGVYYCFHGTHVPYTFGGGTKLEIKR
notes: Mouse monoclonal antibody with the same CDRs as Antibody I; also called mouse antibody

- IC50, neutralization of ligand-stimulated myofibroblast proliferation [10]: < 350 nM
- IC50, neutralization of ligand-stimulated myofibroblast proliferation [11]: < 0.5 nM
- IC50, neutralization of ligand-stimulated myofibroblast proliferation [12]: < 850 nM
- IC50, neutralization of ligand-stimulated myofibroblast proliferation [13]: < 350 nM
- IC50, neutralization of ligand-stimulated myofibroblast proliferation [14]: < 3.5 nM
- IC50, neutralization of ligand-stimulated myofibroblast proliferation [15]: < 850 nM
- IC50, neutralization of ligand-stimulated myofibroblast proliferation [16]: < 3.5 nM
- IC50, neutralization of ligand-stimulated myofibroblast proliferation [17]: < 0.5 nM
- IC50, neutralization of ligand-stimulated MFc7 cell proliferation (BrDU incorporation), ligand at 0.5 nM [3]: 334 nM
- IC50, neutralization of ligand-stimulated MFc7 cell proliferation (BrDU incorporation), ligand at 60 nM [18]: > 2000 nM
- IC50, neutralization of ligand-stimulated MFc7 cell proliferation (BrDU incorporation), ligand at 0.5 nM [19]: > 2000 nM
- IC50, neutralization of ligand-stimulated MFc7 cell proliferation (BrDU incorporation), ligand at 0.5 nM [20]: > 2000 nM
- IC50, neutralization of ligand-stimulated MFc7 cell proliferation (BrDU incorporation), ligand at 0.5 nM [4]: 3.15 nM
- IC50, neutralization of ligand-stimulated MFc7 cell proliferation (BrDU incorporation), ligand at 0.5 nM [6]: 0.19 nM
- IC50, neutralization of ligand-stimulated MFc7 cell proliferation (BrDU incorporation), ligand at 0.5 nM [21]: > 2000 nM
- Kd [22]: 342 nM
- Kd [23]: 1.29 nM
- Kd [24]: 1.05 nM
- Kd [25]: 0.0705 nM
B2: Antibody I (antibody, human IgG4 S228P, kappa, F234A L235A, V domains shown)
VH: QVQLVQSGAEVKKPGSSVKVSCKASGYTFTDAYINWVRQAPGQGLEWMGWIWPGPVITYYNPKFKGRVTITADKSTSTAYMELSSLRSEDTAVYYCARREVLSPFAYWGQGTTVTVSS
VL: DIVMTQSPDSLAVSLGERATINCRSSQSIVHSTGNTYLEWYQQKPGQPPKLLIYKVSNRFSGVPDRFSGSGSGTDFTLTISSLQAEDVAVYYCFHGTHVPYTFGGGTKVEIKR
notes: Humanized IgG4 monoclonal antibody
